Where “and” joins values, the source holds several entries; their conditions need not be identical. Identical values can stand only once.
T1: recombinant human TIMP-3 (human, UniProt P35625 24-211)
T1 construct: also called HuTIMP-3; huTIMP-3
T1 sequence (looked up): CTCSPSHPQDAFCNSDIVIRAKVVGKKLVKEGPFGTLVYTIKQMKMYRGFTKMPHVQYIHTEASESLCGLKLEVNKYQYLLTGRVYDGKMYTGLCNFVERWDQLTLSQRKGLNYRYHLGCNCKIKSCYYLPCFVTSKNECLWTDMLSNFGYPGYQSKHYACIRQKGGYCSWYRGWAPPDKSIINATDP

T2: recombinant mouse TIMP-3 (mouse, UniProt P39876 24-211)
T2 construct: also called MuTIMP-3
T2 sequence (looked up): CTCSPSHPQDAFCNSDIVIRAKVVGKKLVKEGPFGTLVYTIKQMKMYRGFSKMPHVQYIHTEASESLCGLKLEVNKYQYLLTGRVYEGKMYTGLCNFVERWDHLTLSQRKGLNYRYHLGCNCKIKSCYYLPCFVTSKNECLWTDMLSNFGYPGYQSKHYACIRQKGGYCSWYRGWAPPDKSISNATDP


Tests used:
[1] = target: T3, recombinant TIMP-3 (human or mouse; Table 2 does not say which); assay: binding ELISA, Assay 2
T3 construct: The methods say 'human or mouse TIMP-3'

[2] = target: T1, recombinant human TIMP-3; assay: indirect ELISA, huTIMP-3 captured by anti-TIMP-3 clone 277128
Procedure: (§1) Then 100 microL/well of the diluted LRP-1 peptide titration is added to the TIMP-3 coated plate and allowed to bind for 1.5 hour at room temperature with shaking. After incubation, the plate is washed three times with 200 microL/well of wash buffer 2 (TBS [pH 7.5], 1 mM CaCl₂, 0.02% Tween-20). […] The assay plate is then washed three times with 200 microL/well with wash buffer 2. The plate is developed by adding 100 microL/well of 1:1 mixture of TMB and H₂O₂ (Pierce, Fisher Thermo Scientific, Rockford Il.), the reaction is stopped by adding 100 microL/well 2NH₂SO₄ (VWR), and read on a SpectraMax microplate reader (Molecular Devices, Sunnyvale, Calif.) at OD450 nm using SOFTmax Pro software version 3.1.2. Data is analyzed using GraphPad Prism 4.01 software. Binding of LRP-1 peptides to TIMP-3 is expressed as binding EC50.
After incubation, the plate contents are discarded and 250 microL/well of blocking buffer (1% BSA, TBS [pH 7.5], 1 mM CaCl₂) is added to the plate which is incubated with shaking for 1 hour at room temperature. The plate is then washed three times with 200 microL/well with wash buffer 1 (TBS [pH 7.5], 1 mM CaCl₂) followed by the addition of 100 microL of 20 nM recombinant human TIMP-3. The plate is incubated at room temperature for 1 hour. The LRP-1 peptides are titrated as described previously, and 100 microL/well of the diluted LRP-1 peptide titration is added to the TIMP-3 coated plate and allowed to bind for 1.5 hour at room temperature with shaking. After incubation, the plate is washed and the ELISA performed substantially as described previously for the direct binding ELISA.

[3] = target: T1, recombinant human TIMP-3; assay: cell-based or functional assay
[4] = target: T1, recombinant human TIMP-3; assay: direct ELISA, coated huTIMP-3
Procedure: as §1, with “After incubation, the coating solution is removed and replaced with 250 microL/well of blocking buffer (1% BSA, TBS [pH 7.5], 1 mM CaCl₂) and incubated with shaking for 1 hour at room temperature. The plates are then washed three times with 200 microL/well with wash buffer 1 (TBS [pH 7.5], 1 mM CaCl₂). The LRP-1 peptides are titrated in assay buffer (0.1% BSA, TBS [pH 7.5], 1 mM CaCl₂, 0.02% Tween-20) in a separate polypropylene non-treated round-bottom 96-well plate (BD Falcon™) starting at 1 microM concentration and then diluted serially 4-fold for 8-points, with the last point buffer only. Then” for “Then”

[5] = target: T2, recombinant mouse TIMP-3; assay: direct ELISA, coated muTIMP-3
Procedure: as §1, with “After incubation, the coating solution is removed and replaced with 250 microL/well of blocking buffer (1% BSA, TBS [pH 7.5], 1 mM CaCl₂) and incubated with shaking for 1 hour at room temperature. The plates are then washed three times with 200 microL/well with wash buffer 1 (TBS [pH 7.5], 1 mM CaCl₂). The LRP-1 peptides are titrated in assay buffer (0.1% BSA, TBS [pH 7.5], 1 mM CaCl₂, 0.02% Tween-20) in a separate polypropylene non-treated round-bottom 96-well plate (BD Falcon™) starting at 1 microM concentration and then diluted serially 4-fold for 8-points, with the last point buffer only. Then” for “Then”

[6] = target: T3, recombinant TIMP-3 (human or mouse; …); assay: AlphaScreen, biotinylated TIMP-3, Assay 1
Procedure: (§2) Peptides were also evaluated by AlphaScreen® (Amplified Luminescent Proximity Homogeneous Assay; PerkinElmer, Waltham, Mass.) a very sensitive non-radioactive homogeneous assay technology that allows the screening of a large range of biological interactions and activities, substantially according to the manufacturer's instructions. Briefly, all dilutions are made in AlphaScreen® Buffer: [40 mM HEPES pH 7.5, 100 mM NaCl, 1 mM CaCl2, 0.1% BSA, 0.05% Tween-20]. The LRP-1 peptides are titrated in a separate polypropylene 96-well plate (Falcon) starting at 4 microM concentration and then diluted serially 3-fold for 12-points, with the last point buffer only. First 2 microL/well of protein titration curve is added to white, small volume, 384-well assay plate (Greiner Bio-One, Stonehouse, UK) in duplicate. Next, 2 microL of biotinylated (AFS, in-house conjmicroGation) recombinant human or mouse TIMP-3, is added at 12 nM (or 3 nM final assay concentration) to the assay plate. Lastly, in subdued light 4 microL of a mixture of streptavidin donor beads, anti-mouse IgG acceptor beads (PerkinElmer) both diluted to 20 microG/mL (10 microG/mL final assay concentration) and 2 nM (1 nM final concentration) rat-anti-HA (clone3F10)-HRP (Roche Diagnostics) is added to the plates. Plates containing 8 microL final assay volme are covered with TopSeal A (to prevent evaporation), spun quickly at 1000 rpm, and incubated overnight (covered with foil to prevent light exposure) before reading on Fusion plate reader (PerkinElmer) using AlphaScreen® parameters (excitation 680 nm and emission 520-620 nm). Data is analyzed using GraphPad Prism 4.01 software. Binding to TIMP-3 is reported as total signal (cps).

[7] = target: T3, recombinant TIMP-3 (human or mouse; …); assay: AlphaScreen, biotinylated TIMP-3, Assay 2
Procedure: as §2

[8] = target: T3, recombinant TIMP-3 (human or mouse; …); assay: binding ELISA, Assay 3
[9] = target: MMP-13 (UniProt P45452 20-471, limits assumed); assay: cell-based or functional assay
[10] = target: T3, recombinant TIMP-3 (human or mouse; …); assay: binding ELISA, Assay 1

| Binder | EC50 [1] | EC50 [2] | % of the inhibitory activity of TIMP-3 + peptide compared to TIMP-3 alone, 16 nM [3] | % of the inhibitory activity of TIMP-3 + peptide compared to TIMP-3 alone, 80 nM [3] | % of the inhibitory activity of TIMP-3 + peptide compared to TIMP-3 alone, 400 nM [3] | % of the inhibitory activity of TIMP-3 + peptide compared to TIMP-3 alone, 2000 nM [3] | EC50 [4] | EC50 [5] | total signal (cps) [6] | total signal (cps) [7] | EC50 [8] | Direct Inhibition of MMP13 (% decrease), 1000 nM [9] | EC50 [10] | binding result [5] |
| --- | --- | --- | --- | --- | --- | --- | --- | --- | --- | --- | --- | --- | --- | --- |
| LRP-1 peptide LA24-25 (Tags implied (Ni-NTA, anti-HA detection), not described) not shown | 211 nM | 32 nM | 90% | 88% | 87% | 92% | 162 nM | 124 nM | 290000 cps | 130000 cps | 436 nM | – | – | – |
| LRP-1 peptide LA3-4 (Tags implied (Ni-NTA, anti-HA detection), not described) not shown | 289 nM | 81 nM | 104% | – | 84% | 91% | 226 nM | 155 nM | 9000 cps | 3500 cps | 500 nM | – | – | – |
| LRP-1 peptide LA15 (The end 2733 is inferred from the start of LA16 (2734)) not shown | ~5000 nM | 378 nM | 104% | 95% | 67% | 58% | 901 nM | – | 2200 cps | 2000 cps | ~1500 nM | 61% | – | – |
| LRP-1 peptide LA25-26 (peptide) not shown | 673 nM | 41 nM and 20 nM | 97% | 101% | 105% | 101% | 167 nM and 99 nM | 117 nM and 80 nM | 20000 cps | 5000 cps | – | – | – | – |
| LRP-1 peptide LA5-6 (Tags implied (Ni-NTA, anti-HA detection), not described) not shown | 400 nM | 78 nM | 97% | 80% | 72% | 65% | – | 332 nM | 6000 cps | 4000 cps | 512 nM | 16% | – | – |
| LRP-1 peptide LA25 (Tags implied (Ni-NTA, anti-HA detection), not described) not shown | 1220 nM | 447 nM | 96% | 95% | 94% | 94% | 742 nM | – | 5000 cps | 2000 cps | ~1000 nM | – | – | – |
| LRP-1 peptide LA24 (Tags implied (Ni-NTA, anti-HA detection), not described) not shown | ~500 nM | 10 nM | 104% | 104% | – | 81% | 68 nM | 66 nM | 2200 cps | 2000 cps | ~1000 nM | -22% | – | – |
| LRP-1 peptide LA15-17 (The end 2817 is inferred from the end of LA17) CPLNYFACPSGRCIPMSWTCDKEDDCEHGEDETHCNKFCSEAQFECQNHRCISKQWLCDGSDDCGDGSDEAAHCEGKTCGPSSFSCPGTHVCVPERWLCDGDKDCADGADESIAAGCLYNST | – | 100 nM | 95% | 82% | 83% | 91% | 510 nM | 306 nM | 90000 cps | 70000 cps | 191 nM | – | 193 nM | – |
| LRP-1 peptide LA4 (Tags implied (Ni-NTA, anti-HA detection), not described) not shown | 900 nM | – | – | – | – | – | – | – | 2200 cps | 2000 cps | ~3000 nM | – | – | no binding (tested: titration from 1 microM) |
| LRP-1 peptide LA8-10 (The end 1184 is inferred from the end of Cluster II; Tags implied, not described) not shown | – | 219 nM | 94% | 89% | 84% | 93% | – | 696 nM | 110000 cps | 100000 cps | 657 nM and 1040 nM | -6% | – | – |
